Measured values as given in patent US20250368745A1 (published 2025).
Where two headings read alike, the source gives them in different places.

Assays:
cynomolgus IL-18BP [1] = target: T1, cynomolgus IL-18BP (cynomolgus monkey); test: BLI (Octet), mAb on AHC biosensor
T1 construct: Generated in-house; also called cyIL-18BP; cyno IL-18BP
T1 chain: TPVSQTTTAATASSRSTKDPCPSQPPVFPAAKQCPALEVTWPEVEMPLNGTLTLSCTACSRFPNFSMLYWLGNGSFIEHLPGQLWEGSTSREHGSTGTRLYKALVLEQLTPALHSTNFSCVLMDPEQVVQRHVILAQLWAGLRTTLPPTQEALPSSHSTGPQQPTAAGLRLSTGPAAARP

[2] = target: T2, human IL-18BP (interleukin-18 binding protein, isoform A) (human, UniProt O95998 31-194); test: BLI (Octet), mAb on AHC biosensor
T2 construct: cell assays used Sino Biological 10357-H08H; PBMC assay 1 relies on endogenous IL-18BP; UniProt number is printed as 095998; also called hIL-18BP
T2 sequence: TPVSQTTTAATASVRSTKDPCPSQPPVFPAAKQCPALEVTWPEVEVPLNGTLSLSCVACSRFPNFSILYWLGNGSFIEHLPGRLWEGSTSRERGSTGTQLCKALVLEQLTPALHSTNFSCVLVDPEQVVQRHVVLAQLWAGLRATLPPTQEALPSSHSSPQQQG

[3] = target: hypo-IL-18 (IL-18 tethered to IL-18BP by a flexible linker with TEV site, 6xHis) (human); test: BLI
Sequence of hypo-IL-18 (IL-18 tethered to IL-18BP by a flexible linker with TEV site, 6xHis) (human) (chain, as listed by the source limits assumed): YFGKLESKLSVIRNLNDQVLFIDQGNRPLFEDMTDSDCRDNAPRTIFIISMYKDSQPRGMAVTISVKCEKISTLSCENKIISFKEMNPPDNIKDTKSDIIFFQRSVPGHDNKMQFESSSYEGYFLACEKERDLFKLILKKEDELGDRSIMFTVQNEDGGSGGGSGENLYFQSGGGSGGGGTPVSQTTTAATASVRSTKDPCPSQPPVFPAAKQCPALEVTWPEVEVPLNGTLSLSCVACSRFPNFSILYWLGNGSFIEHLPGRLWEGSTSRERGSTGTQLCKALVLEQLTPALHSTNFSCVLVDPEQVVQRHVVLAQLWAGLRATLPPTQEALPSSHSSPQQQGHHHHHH

[4] = target: T2, human IL-18BP (interleukin-18 binding …); test: cell-based or functional assay
[5] = target: T2, human IL-18BP (interleukin-18 binding …); test: cell-based or functional assay; remark: listed apart in the source
cynomolgus IL-18BP [6] = target: T1, cynomolgus IL-18BP; test: ratio of BLI KDs, cyno against human IL-18BP
[7] = target: T2, human IL-18BP (interleukin-18 binding …); test: cell-based or functional assay; remark: listed apart in the source
cynomolgus IL-18BP [8] = target: T1, cynomolgus IL-18BP; test: BLI (Octet), mAb on AHC biosensor
[9] = target: T2, human IL-18BP (interleukin-18 binding …); test: BLI (Octet), mAb on AHC biosensor; remark: listed apart in the source
[10] = target: T2, human IL-18BP (interleukin-18 binding …); test: BLI, affinity column of Table E8

| Binder | Kd (cynomolgus IL-18BP [1]) | Kd [2] | binding result [3] | EC50 (nM), HEK293 IL-18 Reporter Assay (SEAP) [4] | EC50 (nM), KG-1 Assay (IFNγ) [5] | Cyno/human (cynomolgus IL-18BP [6]) | EC50 in PBMC Assay 1 (endogenous IL-18BP), IFNγ [7] | EC50 in PBMC Assay 2 (precomplexed IL-18BP), IFNγ [7] | Kd (cynomolgus IL-18BP [8]) | Kd [9] | Kd [10] |
| --- | --- | --- | --- | --- | --- | --- | --- | --- | --- | --- | --- |
| SA32a (antibody, human IgG1, V domains shown, murine variable regions on human IgG1 kappa constant regions) VH: EVQLQQSGPELVKTGASVKISCKASGYSFTGYYMHWVKQSHGKSLEWIGYISCYNGATSYNQKFKGKATFTVDTSSSTAYMQFNSLTSEDSAVYYCAITLHYAMDYWGQGTSVAS VL: DIVMTQAAFSNPVTLGTSASISCRSSKSLLHSNGITYLYWYLQKPGQSPQLLIYQMSNLASGVPDRFSSSGSGTDFTLRISRVEAEDVGVYYCAQNLELPWTFGGGTKLEIK | 19 nM | 17 nM | no binding | 6.82 nM | 109 nM |  |  |  |  |  |  |
| SA33a (antibody, human IgG1, V domains shown, murine variable regions on human IgG1 kappa constant regions) VH: QVQLQQSGAELVRPGVSVKISCKGSGYTFTDYAMHWVKQSHAKSLEWIGVISTYYGDASYNQKFKGKATMTVDKSSSTAYMELARLTSEDSAIYYCARERDYYGSRLFDYWGQGTTLTVSS VL: EIVLTQSPTTMAASPGEKITITCSANSSISSNYLHWYQQKPGFSPKLLIYGTSNLASGVPARFSGSGSGTSYSLTIGTMEAEDVATYYCQQGSSIPYTFGGGTKLEIK | 16 nM | 3 nM | no binding | 0.36 nM | 129 nM |  |  |  |  |  |  |
| SA302a (antibody, human IgG1, V domains shown, humanized; human IgG1 (suffix a), kappa) VH: QVQLQESGPGLVKPSQTLSLTCTVSGYSITSDYNAHWIRQPPGKGLEWIGYIHYSGSTNYNPSLKSRVTISRDTSKNQFSLKLSSVTAADTAVYYCARNYGSIYVNYFDYWGQGTLVTVSS VL: EIVLTQSPATLSLSPGERATLSCSASSSVSYMYWYQQKPGQAPRPLIYRTSNLASGIPARFSGSGSGTDFTLTISSLEPEDFAVYYCQQYHSYPTFGGGTKVEIK |  |  |  |  |  | 0.45 ratio | 15 nM | 2.15 nM | 0.156 nM | 0.345 nM | 0.345 nM |
| SA303a (antibody, human IgG1, V domains shown, humanized; human IgG1 (suffix a), kappa) VH: QVQLQESGPGLVKPSQTLSLTCTVSGYSITSDYNAHWIRQPPGKGLEWIGYIHYSGSTNYNPSLKSRVTISRDTSKNQFSLKLSSVTAADTAVYYCARNFGSIYVNYFDYWGQGTLVTVSS VL: EIVLTQSPATLSLSPGERATLSCSASSSVSYMYWYQQKPGQAPRPLIYRTSNLASGIPARFSGSGSGTDFTLTISSLEPEDFAVYYCQQYHSYPTFGGGTKVEIK |  |  |  |  |  | 0.42 ratio | 1.6 nM | 2.75 nM | 0.077 nM | 0.182 nM | 0.182 nM |
| SA307a (antibody, human IgG1, V domains shown, humanized; human IgG1 (suffix a), kappa) VH: QVQLQESGPGLVKPSQTLSLTCTVSGYSITQDYNAHWIRQPPGKGLEWIGYIHYSGSTNYNPSLKSRVTISRDTSKNQFSLKLSSVTAADTAVYYCARNYGSIYVNYFDYWGQGTLVTVSS VL: EIVLTQSPATLSLSPGERATLSCSASSSVSYMYWYQQKPGQAPRPLIYRTSNLASGIPARFSGSGSGTDFTLTISSLEPEDFAVYYCQQYHSYPTFGGGTKVEIK |  |  |  |  |  | 0.5 ratio | 1.6 nM | 1.47 nM | 0.027 nM | 0.054 nM | 0.054 nM |
| SA309a (antibody, human IgG1, V domains shown, humanized; human IgG1 (suffix a), kappa) VH: QVQLQESGPGLVKPSQTLSLTCTVSGYSITSDYNAHWIRQPPGKGLEWIGYIHYSGQTNYNPSLKSRVTISRDTSKNQFSLKLSSVTAADTAVYYCARNYGSIYVNYFDYWGQGTLVTVSS VL: EIVLTQSPATLSLSPGERATLSCSASSSVSYMYWYQQKPGQAPRPLIYRTSNLASGIPARFSGSGSGTDFTLTISSLEPEDFAVYYCQQYHSYPTFGGGTKVEIK |  |  |  |  |  | 0.39 ratio | 2.8 nM | 0.62 nM | 0.024 nM | 0.061 nM | 0.061 nM |
| SA310a (antibody, human IgG1, V domains shown, humanized; human IgG1 (suffix a), kappa) VH: QVQLQESGPGLVKPSQTLSLTCTVSGYSITSDYNAHWIRQPPGKGLEWIGYIHYSGSTMYNPSLKSRVTISRDTSKNQFSLKLSSVTAADTAVYYCARNYGSIYVNYFDYWGQGTLVTVSS VL: EIVLTQSPATLSLSPGERATLSCSASSSVSYMYWYQQKPGQAPRPLIYRTSNLASGIPARFSGSGSGTDFTLTISSLEPEDFAVYYCQQYHSYPTFGGGTKVEIK |  |  |  |  |  | 0.16 ratio | 1.9 nM | 0.94 nM | 0.028 nM | 0.175 nM | 0.175 nM |
| SA320a (antibody, human IgG1, V domains shown, humanized; human IgG1 (suffix a), kappa) VH: QVQLQESGPGLVKPSQTLSLTCTVSGYSITQDYNAHWIRQPPGKGLEWIGYIHYSGQTYYNPSLKSRVTISRDTSKNQFSLKLSSVTAADTAVYYCARNFGSIYVNYFDYWGQGTLVTVSS VL: EIVLTQSPATLSLSPGERATLSCSASSSVSYMYWYQQKPGQAPRPLIYRTSNLASGIPARFSGSGSGTDFTLTISSLEPEDFAVYYCQQYHSYPTFGGGTKVEIK |  |  |  |  |  | 0.38 ratio | 0.3 nM | 0.25 nM | 0.02 nM | 0.052 nM | 0.052 nM |
| SA322a (antibody, human IgG1, V domains shown, humanized; human IgG1 (suffix a), kappa) VH: QVQLQESGPGLVKPSQTLSLTCTVSGYSITQDYNAHWIRQPPGKGLEWIGYIHYSGQTNYNPSLKSRVTISRDTSKNQFSLKLSSVTAADTAVYYCARNYGSIYVNYFDYWGQGTLVTVSS VL: EIVLTQSPATLSLSPGERATLSCSASSSVSYMYWYQQKPGQAPRPLIYRTSNLASGIPARFSGSGSGTDFTLTISSLEPEDFAVYYCQQYHSYPTFGGGTKVEIK |  |  |  |  |  | 0.37 ratio | 0.8 nM | 0.53 nM | 0.02 nM | 0.054 nM | 0.054 nM |
| SA329a (antibody, human IgG1, V domains shown, humanized; human IgG1 (suffix a), kappa) VH: QVQLQESGPGLVKPSQTLSLTCTVSGYSITSDYNAHWIRQPPGKGLEWIGYIHYSGSTNYNPSLKSRVTISRDTSKNQFSLKLSSVTAADTAVYYCARNYGSIYVNYFDYWGQGTLVTVSS VL: EIVLTQSPATLSLSPGERATLSCSASSSVSYMYWYQQKPGQAPRPLIYRTSNLASGIPARFSGSGSGTDFTLTISSLEPEDFAVYYCQQYHSYPKFGGGTKVEIK |  |  |  |  |  |  | 5.3 nM | 7.4 nM |  | 0.107 nM | 0.107 nM |
| SA330a (antibody, human IgG1, V domains shown, humanized; human IgG1 (suffix a), kappa) VH: QVQLQESGPGLVKPSQTLSLTCTVSGYSITSDYNAHWIRQPPGKGLEWIGYIHYSGQTYYNPSLKSRVTISRDTSKNQFSLKLSSVTAADTAVYYCARNFGSIYVNYFDYWGQGTLVTVSS VL: EIVLTQSPATLSLSPGERATLSCSASSSVSYMYWYQQKPGQAPRPLIYRTSNLASGIPARFSGSGSGTDFTLTISSLEPEDFAVYYCQQYHSYPTFGGGTKVEIK |  |  |  |  |  |  | 21 nM | 0.9 nM |  | 0.076 nM | 0.076 nM |
| SA337a (antibody, human IgG1, V domains shown, humanized; human IgG1 (suffix a), kappa) VH: QVQLQESGPGLVKPSQTLSLTCTVSGYSITQDYNAHWIRQPPGKGLEWIGYIHYSGQTNYNPSLKSRVTISRDTSKNQFSLKLSSVTAADTAVYYCARNYGSIYVNYFDYWGQGTLVTVSS VL: EIVLTQSPATLSLSPGERATLSCSASSSVSYMYWYQQKPGQAPRPLIYRTSNLASGIPARFSGSGSGTDFTLTISSLEPEDFAVYYCQLYHSYPTFGGGTKVEIK |  |  |  |  |  | 0.89 ratio | 1 nM | 0.58 nM | 0.042 nM | 0.047 nM | 0.047 nM |
| SA338a (antibody, human IgG1, V domains shown, humanized; human IgG1 (suffix a), kappa) VH: QVQLQESGPGLVKPSQTLSLTCTVSGYSITQDYNAHWIRQPPGKGLEWIGYIHYSGQTYYNPSLKSRVTISRDTSKNQFSLKLSSVTAADTAVYYCARNFGSIYVNYFDYWGQGTLVTVSS VL: EIVLTQSPATLSLSPGERATLSCSASSSVSYMYWYQQKPGQAPRPLIYRTSNLASGIPARFSGSGSGTDFTLTISSLEPEDFAVYYCQLYHSYPTFGGGTKVEIK |  |  |  |  |  | 0.67 ratio | 0.5 nM | 0.33 nM | 0.024 nM | 0.032 nM | 0.032 nM |
| SA340a (antibody, human IgG1, V domains shown, humanized; human IgG1 (suffix a), kappa) VH: QVQLQESGPGLVKPSQTLSLTCTVSGYSITQDYNAHWIRQPPGKGLEWIGYIHYSGQTYYNPSLKSRVTISRDTSKNQFSLKLSSVTAADTAVYYCARNFGSIYVNYFDYWGQGTLVTVSS VL: EIVLTQSPATLSLSPGERATLSCSASSSVSYMYWYQQKPGQAPRPLIYRTSNLASGIPARFSGSGSGTDFTLTISSLEPEDFAVYYCQQYHSYPKFGGGTKVEIK |  |  |  |  |  | 1.33 ratio |  |  | 0.036 nM | 0.027 nM |  |
